According to US20220193111A1, “Method of Treatment” (The University Court of the University of Edinburgh, priority 2018, published 2022):

Experiments:
[1] = tested on: HUVECs treated with TNF-α/IL-1β; test: Rescue of TNF-α/IL-1β-induced EndMT in HUVECs; type: cell-based, human; conditions: mimic-transfected HUVECs, TNF-α/IL-1β 6 days
Experimental: Human umbilical vein ECs (HUVECs; Lonza) were grown in EGM-2 (comprising EBM-2 with growth factors and other supplements) with 2% Foetal Bovine Serum. Confluent HUVECs were treated with 10 ng/ml TNF-α, IL-1β, TGFβ2 (PeproTech); medium and cytokines were changed every two days. SB431542 (Tocris) has been used at the dose of 10 μM. HEK293T cells (ATCC®, CRL-11268) were cultured in D-MEM with 10% FBS (Life Technologies).
Total RNA was extracted using miReasy kit (Qiagen). Real-time quantification to measure miRNAs was performed with the TaqMan miRNA reverse transcription kit and miRNA assay (Life Technology) using Lightcycler 480 (Roche). miRNAs expression was normalized to the U6 […] (snRU6). For mRNA analysis, cDNA was amplified by quantitative real-time PCR (qPCR) and normalized to 18S ribosomal RNA. Each reaction was performed in triplicate. Quantification was performed by the 2^−ΔΔCt method^52. qPCR was used to measure the expression of miR-148b (miR-148b-3p Thermo Fisher Scientific, Cat. #4426961), snRU6 (ThermoFisher Scientific, Cat. #4331182), TGFβ2, SMAD2, CD31, VE-Cadherin, COL1A1, α-SMA, SLUG, VIM, SNAIL, TWIST, ZEB1/2 and 18S rRNA. Primers are pre-designed from Sigma (KiCgStart™ Primers).
Lipofectamine RNAiMAX (Thermo Fisher Scientific) was used to transfect HUVECs with miR-148b mimic, anti-miR-148b and mimic or anti-miR control (25 nM and […], respectively final concentration) or with siRNA targeting SMAD2 (20 nM final concentration), according to the manufacturer's instructions. jetPEI-HUVECs (Polyplus) was used to transfect HUVECs with DNA plasmids. The following functional assays were performed: BrdU incorporation assay using Cell Proliferation colorimetric assay (Roche); Matrigel assay with HUVECs was performed as previously described using BD Matrigel Basement Membrane Matrix (BD Biosciences)^53.
Proteins were extracted from cultured cells or muscles by using ice-cold buffer A (50 mM Hepes, 150 mM NaCl, 1 mM EDTA, 1 mM EGTA, 25 mM NaF, 5 mM NaPPi, 1%Triton, 1% NP40, 1 mM Na3VO4, 0.25% sodium deoxycholate, 0.5 mM Na-orthovanadate, 1 mM benzamidine, 0.1 mM phenylmethylsulfonyl fluoride). Protein concentration was determined using the Bio-Rad Protein Assay Reagent (Bio-Rad Laboratories, UK). Detection of proteins by Western blot analyses was done following separation of whole cell extracts (20 μg) on SDS-polyacrylamide gels. Proteins were transferred to nitrocellulose membranes and probed with the following antibodies: TGFβ2 (Abcam, ab36495, 1:1000), SMAD2 (SantaCruz Biotechnology, Santa Cruz, Calif., USA; #3102, 1:1000), p-SMAD2 (465/467) (Cell Signaling; #3108, 1:1000); CD31 (Abcam., 1:1000), VE-Cadherin (Abcam, ab33168, 1:1000), COL1A1 (Abcam, ab138492, 1:200), FSP-1 (5100A4; Abcam, ab41532, 1:1000), SLUG (Abcam, ab27568, 1:1000), β-actin (Abcam, ab16039, 1:4000), HDAC3 (GeneTex GTX113303, 1:1000) and GAPDH (GeneTex, GT239, 1:1000) (both used as loading control). For detection, the inventors used secondary antibodies conjugated to horseradish peroxidase which were rabbit anti-mouse (Abcam, ab97046, 1:5000) and goat anti-rabbit (Abcam, ab6721, 1:10000). Detection was developed by chemiluminescence reaction (ECL) (Immunoblot, Millipore, 23225).
Cells were fixed using 4% paraformaldehyde in PBS at room temperature for 15 min. For intracellular staining, fixed cells were permeabilized using 0.5% Triton X-100 in PBS (Sigma-Aldrich) or 0.1% Saponin in PBS at room temperature for 10 min. The blocking of […] antibody activity was performed using 3% bovine serum albumin (BSA) in PBS for 1 hour. Samples were incubated with antibodies to CD31 (Abcam, ab28364, 1:50), VE-cadherin (Abcam, ab33168, 1:100), FSP-1 (Abcam, ab41532, 1:200) and COL1A1 (Abcam, ab138492, 1:100) in PBS containing 1% BSA at 4° C. overnight. […]

3′UTR of TGFB2 = test: Luciferase reporter assay, wild-type 3′UTR of TGFB2; type: cell-based, human; conditions: 48 h post-co-transfection, HEK293T cells or HUVECs; mutation of the binding sites restored it
Excerpt: Luciferase assay has been performed as previously described^53. TGFB2 3′-UTR and SMAD2 3′-UTR vectors were cloned in pMIR-Reporter (Life Technology). Primers are used for the cloning are: TGFβ2 3′UTR: Forward 5′-[…]-3′ (SEQ ID NO: 7), Reverse 5′-[…]-3′ (SEQ ID NO: 8); SMAD2 3′UTR: Forward 5′-[…]-3′ (SEQ ID NO: 9), Reverse 5′-[…]-3′ (SEQ ID NO: 10). Primers for 3′UTR mutation: TGFB2: Forward […] (SEQ ID NO: 11) and Reverse […] (SEQ ID NO: 12); SMAD2 Forward […] (SEQ ID NO: 13) and Reverse […] (SEQ ID NO: 14). Luciferase constructs were transfected into HEK293T cells or HUVECs together with miR-148b mimics or p-SV-beta-Gal control vector. Cells were cultured for 48 h and assayed with the Luciferase and β-Galactosidase Reporter Assay Systems (Promega). Luciferase values were normalized to protein concentration and β-galactosidase activity.

B1: miR-148b mimic: miR-148b mimic oligonucleotide; in a particular embodiment has SEQ ID NO: 1, the human precursor miR-148b sequence (nucleic acid)
chain: CAAGCACGAUUAGCAUUUGAGGUGAAGUUCUGUUAUACACUCAGGCUGUGGCUCUCUGAAAGUCAGUGCAUCACAGAACUUUGUCUCGAAAGCUUUCUA
modifications: listed as RNA, chemistry not given here
CD31 and VE-cadherin, mRNA and protein levels [1]: rescued | COL1A1 and FSP-1 staining (immunostaining) [1]: decrease | TGFB2, SMAD2, SLUG, FSP-1, COL1A1 (mRNA and protein) [1]: decreased | endothelial markers CD31 and VE-cadherin on ECs membrane (immunostaining) [1]: maintenance | phosphorylation of SMAD2 [1]: reduced | luciferase activity, 3′-UTR-TGFB2 reporter (3′UTR of TGFB2): decreased luciferase activity
